# Experimental data published in patent US20240294650A1 (Alector, published 2024).
# Numbering of substitutions follows the chain as printed.
# T1: mouse MerTK overexpressed on CHO cells (mouse, UniProt Q60805 19-994)
# T1 construct: whole, on cells; also called CHO-muMerTK OE
# T1 sequence (looked up): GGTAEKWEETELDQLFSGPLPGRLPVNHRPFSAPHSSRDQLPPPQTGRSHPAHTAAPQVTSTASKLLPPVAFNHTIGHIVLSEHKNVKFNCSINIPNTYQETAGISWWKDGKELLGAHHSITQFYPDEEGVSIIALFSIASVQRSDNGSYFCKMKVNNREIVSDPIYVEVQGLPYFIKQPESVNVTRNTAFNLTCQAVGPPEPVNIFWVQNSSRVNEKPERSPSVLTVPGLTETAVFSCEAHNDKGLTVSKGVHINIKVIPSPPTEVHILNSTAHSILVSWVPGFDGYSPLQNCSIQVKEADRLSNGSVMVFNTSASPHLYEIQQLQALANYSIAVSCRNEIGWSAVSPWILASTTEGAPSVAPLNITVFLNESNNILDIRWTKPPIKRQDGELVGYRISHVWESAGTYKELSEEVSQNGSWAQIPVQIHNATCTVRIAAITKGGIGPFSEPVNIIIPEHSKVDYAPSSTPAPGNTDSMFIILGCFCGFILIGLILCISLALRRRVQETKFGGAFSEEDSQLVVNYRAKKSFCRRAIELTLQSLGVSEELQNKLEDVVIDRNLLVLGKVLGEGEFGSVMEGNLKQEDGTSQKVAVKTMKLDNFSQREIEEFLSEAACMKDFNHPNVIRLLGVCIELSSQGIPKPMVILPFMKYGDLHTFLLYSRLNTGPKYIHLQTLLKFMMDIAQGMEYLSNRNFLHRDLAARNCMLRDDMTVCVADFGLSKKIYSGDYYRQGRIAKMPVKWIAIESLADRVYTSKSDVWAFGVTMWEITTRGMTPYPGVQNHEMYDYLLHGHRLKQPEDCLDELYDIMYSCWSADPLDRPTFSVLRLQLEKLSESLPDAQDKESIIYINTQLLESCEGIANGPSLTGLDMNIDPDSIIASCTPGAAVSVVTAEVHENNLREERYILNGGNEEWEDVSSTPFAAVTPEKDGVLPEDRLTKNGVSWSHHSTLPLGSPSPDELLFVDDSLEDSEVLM
# T2: endogenous murine MerTK on bone marrow-derived macrophages (mouse, UniProt Q60805 19-994)
# T2 construct: whole, on cells; MFI on MerTK KO BMDM subtracted; also called BMDM WT-KO
# T2 sequence (looked up): T1 sequence (looked up)
# B1: MTK-228 (antibody, human IgG1, V domains shown)
# VH: QDQLQQSGPELVKPGASVKISCKASGYSFTSYYIHWVKQRPGQGLEWVGWIFPGNGNTKYNERFKGKATLTADTSSSTAYMQLSSLTSEDSAVYYCARLGLIYALDYWGQGTSVTVSS
# VL: DAVMTQTPLSLPVSLGDQASISCRSSQSLENSNGNTYLHWYLQKPGQSPQLLIYRVSNRFSGVLDRFSGSGSGTDFTLKISRVEAEDLGVYFCLQVTHVPFTFGSGTKLEIK
# B2: MTK-226 (antibody, human IgG1, V domains shown)
# VH: B1 VH with D2V, V48I, R63N, K65R
# VL: B1 VL with N31S, K79Q
# B3: MTK-218 (antibody, human IgG1, V domains shown)
# VH: B1 VH with D2V, A16T, E46D, V48I, G56R, K59Q, R63K
# VL: B1 VL with N35H, L64Q
# B4: MTK-206 (antibody, human IgG1, V domains shown)
# VH: QVQLQQSGAELARPGASVKMSCKASGYTFTSYTMHWVKQRPGQGLEWIGYINPSSGYIKNSQKFKDKATLTADKSSSTAYMQLSSLTSEDSAVYYCARTVYGYYGSSPDYWGQGTTLTVSS
# VL: DIQMTQSPSSLSASLGERVSLTCRASQDIGSNLNWLQQEPDGTIKRLIYATSSLESGVPKRFSGSRSGSDYSLTISSLESEDFVDYYCLQYDSSPWTFGGGTKLEIK
# B5: MTK-220 (antibody, V domains shown)
# VH: EVQLVESGGGLVKPGGSLKLSCAASGFTFSDYGMHWVRQAPEKGLEWVAFISGGSGTIYYEDTVKGRFTISRDNAKNTLFLQMTSLRSEDTAMYYCTRGGNYFDYWGQGTTLTVSS
# VL: NIMLTQSPSSLAVSAGEKVTMTCKSSQSVLYSSNQKNYLAWYQQKPGQSPKLLIYWASTRESGVPDRFTGSGSGTDFTLTISNVQAEDLAVYYCHQYFSSWTFGGGTKLEIK
# B6: MTK-213 (antibody, human IgG1, V domains shown)
# VH: QVQLQQPGAELVKPGASVKMSCKASGYTFTSYWITWVKQRPGQGHEWIGEIYPGIGSTNYNEKFKSKATLTVDTSSRTAYMQLSSLTSEDSAVYFCARGAYTKYYFDYWGQGTTLTVSS
# VL: DIVMTQSHKFMSTSVGDRVSITCKASQDVGDAVAWYQQKPGQTPKLLIYWASTRHTGVPDRFTGSGSGTDFTLTISNVQSEDLADYFCQQYSSYLMYTFGGGTKLEIK
# B7: MTK-211 (antibody, human IgG1, V domains shown)
# VH: QVQLQQSGAELMKPGASVKLSCKATGYTFTGYWIEWVKQRPGHGLEWIGEILPGSGGSNYNEKFKGKATFTADTSSNTAYIQLSSLTTEDSAIYCCARGEPSYFSDAGFAYWGQGTLVTVSA
# VL: QIVLTQSPAVMSASPGEKVTMTCSASSSITYMHWYQQKPGTSPKRWIYDTSKLASGVPARFSGSGSGTSYFLTISSMEAEDVATYYCHQRSTYPYTFGGGTKLEIM
# B8: MTK-221 (antibody, human IgG1, V domains shown)
# VH: QVTLKESGPGMLQSSQTLSLTCSFSGFSLSTSGMGVSWIRQPSGKGLEWLAHIYWDDDKRYNTSLQSRLTISKDTSRNQVFLKITSVDTADTATYFCGRLGAYSAFPYYFDYWGQGTTLTVSS
# VL: DIQMTQSPSSLSASLGGKVTITCKASQDIHKHIAWYQHKPGKGPRLLIHYTSTLQPGIPSRFSGSGSGRDYSFSISNLEPEDLATYYCLQYDNLWTFGGGTKLEIK
# B9: MTK-214 (antibody, human IgG1, V domains shown)
# VH: QVQLQQPGAELVKPGASVKVSCKASGYTFTNYWMHWMKQRPGQGLEWIGRIHPFDSDTNYNEKFTDKATLTVDKSSSTAYMQLSSLTSEDSAVYYCAIGTLIYWGQGTTLTASS
# VL: DILLTQSPATLSVTPGETVSLSCRASQSIYKKLHWFQQRSHRSPRLLIKFASDSISGIPSRFTGSGSGTDYTLSINSVKPEDEAIYYCLQGYSTPLTFGAGTKLELK
# B10: MTK-227 (antibody, human IgG1, V domains shown)
# VH: EVKLVESGGGLVQPGGSLSLSCAASGFTFTDNYMTWVRQPPGKALEWLGFSRNKANGYTTEYSASVKGRFTISRDSSQSILYLQMNALRAEDSGTYYCARFPPHYYAGGYFDVWGTGTTVTVSS
# VL: DIQMTQSPASLSASVGETVTITCRASENIYSYLAWYQQKQGKSPQLLVYNAKTLAEGVPSRFSGSGSGTQFSLKINSLQPADFGSYYCQHYYRTPPTFGGGTKLEIK
# B11: MTK-223 (antibody, human IgG1, V domains shown)
# VH: DVQLQESGPGLVKPSQSLSLTCSVTGYSITSGYYWNWIRQFPGNKLEWMGYISYDGTNNYNPSLKNRISITRDTSENQFFLKLNSVTTEDTATYFCVRGAGYWGQGTTLTVSS
# VL: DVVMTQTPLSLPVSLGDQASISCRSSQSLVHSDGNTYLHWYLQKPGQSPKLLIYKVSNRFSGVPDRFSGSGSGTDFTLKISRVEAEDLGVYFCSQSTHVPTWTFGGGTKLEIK
# B12: MTK-229 (antibody, human IgG1, V domains shown)
# VH: QVQLQQSGPELVKPGASVKISCKASGYEFSRSWMNWVKQRPGKGLEWIGRIYPGDGDTNYKGKLKGQATLTADKSSSTAYMQLSSLTFEDSAVYFCARGGGYYYDSRYEGFVYWGQGTVVTVSA
# VL: QIVLTQSPAIMSASPGEEVTMTCSASSSVSYMHWYQQKSGTSPKRWIYDTSKLASGVSGRFSGSGSGTSYSLTISSMEAEDAATYYCQQWSSNPPITFGAGTKLELK
# B13: MTK-208 (antibody, human IgG1, V domains shown)
# VH: QVQLQQPGAELVVPGASVRLSCKASGYTFINYWMHWVKQRPGQGLEWIGEIDPSDSYANYNQKFKDKSTLSLDKSSSTAYMQLSSLTSEDSAVYYCARCDYYGRLDYWGQGTTLTVSS
# VL: QVVLTQSPAIMSASPGEKVTITCSASSSVSYMLWFQQKPGTSPKLWIYSTSNLASGVPARFSGSGSGTSYSLTISRLEAEDAATYYCQQRSSYPPITFGAGTKLELK
# B14: MTK-201 (antibody, human IgG1, V domains shown)
# VH: QVQLRQSGPGLVQPSQSLSITCTVSGFSLSNYGLHWVRQSPGKGLEWLGVIWSGGITDYNAAFISRLSIIKDNSRSQVFFKMNSLQADDTAIYYCARKGHDPYAMDFWGQGTSVTVSS
# VL: QIVLTQSPPIMSAFLGERVTMTCTASSSVSSSYLHWYRQMPGSSPKLWIYDTSNLASGVPARFSGSGSGTSYSLTISSMEAEDAATYYCHQYHHSPYTFGGGTKLEIK
# B15: MTK-210 (antibody, human IgG1, V domains shown)
# VH: QVQLQQSGPELVKPGASVKISCKASDYEFSRSWMNWVKQRPGKGLEWIGRIYPGDGDTNYNGKFKGKATLTADKSSNTAYMQLNSLTSEDSAVYFCARKGGYYYSISNYFDYWGQGTTLTVSS
# VL: QIVLTQSPAIMSASPGVKVTMTCSASSSVSYMHWYQQKPGSSPRLLIYDTSNLASGVPVRFSGSGSGTSYSLTISRMEAEDAATYYCQQWSSYPPYTFGGGTKLEIK
# B16: MTK-215 (antibody, human IgG1, V domains shown)
# VH: EVQLVESGGGLVKPGGSLKLSCAASGFIFSDYGMHWVRQAPEKGLEWVAYISSGSSTIYYGDTVKGRFTISRDNAKNTLFLQMTSLRSEDTAMYYCAKGGRYGAMDYWGHGTSVTVSS
# VL: DIVLTQSPATLSVTPGDSVSLSCRASQSISNNLHWYQQKSHESPRLLIKNPSQSISGIPSRFGARGSGTDFTLIINSVETEDLGVYFCQQSNSWPFTFGSGTKLEIK
# B17: MTK-219 (antibody, human IgG1, V domains shown)
# VH: QVQLQQSGADLMKPGASVKLSCKATGNTFTGYWIEWVKQRPGHGLEWIGEILTGSGSTNYNERFKGKATFTADTSSNTAYMQLSSLTTEDSAIYYCAGSYFTNSWFPYWGQGSLVTVSA
# VL: DIVLTQSPASLAVSLGQRATISCRASESVDSYGNSFMHWYQQKPGQPPKLLIYRAYTLESGIPARFSGSGSRTDFTLTINPVEADDVATYYCQQSNEDPRTFGGGTKLEIK
# Legend:
# [1] = biological target: T1, mouse MerTK overexpressed on CHO cells; experiment: FACS, CHO-muMerTK OE cells, 10 ug/ml
# Protocol: (§1) To determine whether recombinant anti-human MerTK antibodies of the present disclosure bind to human MerTK endogenously expressed on SK-MEL-5 cells and CHO cells overexpressing mouse MerTK (CHO-muMerTK OE cells), as compared to A375 and parental CHO cells as negative controls, the following experiments were performed. SK-MEL-5 cells, A375 cells, CHO-muMerTK OE cells, and CHO parental cells were plated at 100,000 cells/well. Anti-MerTK antibodies were added to the cells at 10 μg/ml. After 60 minutes on ice, cells were washed and then stained with PE-conjugated goat anti-human IgG antibody (Southern Biotech Cat #2040-09, Birmingham, AL) in the presence of Fc block solution on ice for 30 minutes, and then washed twice with cold FACS buffer (2% FBS in PBS). Mouse anti-human MerTK-PE conjugated (Biolegend, Clone 590H11G1E3) or anti-mouse MerTK-PE conjugated (ThermoFisher, Clone DS5MMER) antibodies were used as positive controls. Stained cells were acquired on a BD FACS Canto II cytometer and the mean fluorescence intensity (MFI) was calculated with FlowJo.
# [2] = biological target: T2, endogenous murine MerTK on bone …; experiment: FACS, mouse BMDM, WT minus MerTK KO
# Protocol: as §1
# To confirm anti-MerTK antibody binding to endogenous murine MerTK, bone marrow-derived macrophages (BMDM) were isolated from MerTK wild type (WT) and knockout (KO) mice (The Jackson Laboratory, Cat #011122) using standard protocols. Briefly, cells isolated from the bone marrow were plated in the presence of 50 ng/ml M-CSF (R&D Systems, Cat #416-ML) for seven days to allow for differentiation into macrophages. Cell staining, FACs, and MFI were performed and calculated as described above.
binder,measurement,setting,value
B1,MFI,[1],17400 MFI
same,MFI,[2],7370 MFI
B2,MFI,[1],11500 MFI
same,MFI,[2],10400 MFI
B3,MFI,[1],13200 MFI
same,MFI,[2],11800 MFI
B4,MFI,[2],431 MFI
B5,MFI,[1],5800 MFI
same,MFI,[2],757 MFI
B6,MFI,[1],12800 MFI
same,MFI,[2],8450 MFI
B7,MFI,[1],5160 MFI
same,MFI,[2],4490 MFI
B8,MFI,[1],374 MFI
B9,MFI,[2],2950 MFI
B10,MFI,[1],14200 MFI
same,MFI,[2],5020 MFI
B11,MFI,[1],234 MFI
same,MFI,[2],316 MFI
B12,MFI,[1],2000 MFI
same,MFI,[2],2870 MFI
B13,MFI,[1],329 MFI
B14,MFI,[1],252 MFI
B15,MFI,[1],252 MFI
B16,MFI,[2],466 MFI
B17,MFI,[1],11400 MFI
same,MFI,[2],6180 MFI
